Laboratory results from US20030148921.

Key:
[1] = target: galactosidase-PAR2 (GPAR2) fusion protein
[2] = target: GPAR2^R34S activation site mutant fusion protein
[3] = target: GPAR4^R47S activation site mutant fusion protein
[4] = target: activation site mutant fusion protein GPAR1^R45S
[5] = target: galactosidase-PAR4 (GPAR4) fusion protein
[6] = target: galactosidase-PAR1 (GPAR1) fusion protein [β-galactosidase: P00722]
[7] = target: GPAR3^K37S activation site mutant fusion protein
[8] = target: galactosidase-PAR3 (GPAR3) fusion protein
Chain of galactosidase-PAR3 (GPAR3) fusion protein (chain, as listed by the source, chain 1 of 2): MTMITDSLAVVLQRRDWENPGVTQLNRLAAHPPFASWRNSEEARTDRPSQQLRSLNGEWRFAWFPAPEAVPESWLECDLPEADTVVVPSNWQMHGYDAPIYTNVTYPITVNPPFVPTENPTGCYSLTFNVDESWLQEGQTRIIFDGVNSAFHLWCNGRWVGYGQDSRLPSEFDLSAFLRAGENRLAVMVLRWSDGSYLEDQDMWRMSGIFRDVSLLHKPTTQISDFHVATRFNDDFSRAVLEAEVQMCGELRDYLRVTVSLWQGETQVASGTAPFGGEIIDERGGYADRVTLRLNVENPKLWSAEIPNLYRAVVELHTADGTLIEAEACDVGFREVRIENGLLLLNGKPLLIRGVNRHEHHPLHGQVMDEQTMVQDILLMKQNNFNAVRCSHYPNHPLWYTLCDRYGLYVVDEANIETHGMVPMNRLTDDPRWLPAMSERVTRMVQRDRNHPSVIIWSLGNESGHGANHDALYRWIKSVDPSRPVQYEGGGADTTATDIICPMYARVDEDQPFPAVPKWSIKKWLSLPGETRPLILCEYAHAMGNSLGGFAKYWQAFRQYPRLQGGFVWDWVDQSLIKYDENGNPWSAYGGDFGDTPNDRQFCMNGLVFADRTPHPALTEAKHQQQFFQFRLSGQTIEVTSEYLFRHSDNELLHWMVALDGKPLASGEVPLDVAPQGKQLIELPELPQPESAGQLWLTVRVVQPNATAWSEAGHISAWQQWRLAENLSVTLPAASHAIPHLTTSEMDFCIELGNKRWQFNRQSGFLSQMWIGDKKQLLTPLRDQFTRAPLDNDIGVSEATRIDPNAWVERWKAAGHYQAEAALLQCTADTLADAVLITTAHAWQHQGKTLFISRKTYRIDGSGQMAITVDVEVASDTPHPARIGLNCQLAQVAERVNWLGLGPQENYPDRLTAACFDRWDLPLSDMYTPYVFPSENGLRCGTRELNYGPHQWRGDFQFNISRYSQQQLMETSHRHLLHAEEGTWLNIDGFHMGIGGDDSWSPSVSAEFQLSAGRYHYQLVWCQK
Chain of galactosidase-PAR3 (GPAR3) fusion protein (chain, as listed by the source, chain 2 of 2): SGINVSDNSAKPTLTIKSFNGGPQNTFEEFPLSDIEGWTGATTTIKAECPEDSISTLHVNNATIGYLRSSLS

Chain of galactosidase-PAR1 (GPAR1) fusion protein [β-galactosidase: P00722] (P00722 whole entry, chain 1 of 2, the tested form may be a part): as the sequence (chain, as listed by the source, chain 1 of 2) above
Chain of galactosidase-PAR1 (GPAR1) fusion protein [β-galactosidase: P00722] (chain, as listed by the source, chain 2 of 2): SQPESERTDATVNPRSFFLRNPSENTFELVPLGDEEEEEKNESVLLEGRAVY
Chain of galactosidase-PAR2 (GPAR2) fusion protein (chain, as listed by the source, chain 1 of 2): as the sequence (chain, as listed by the source, chain 1 of 2) above
Chain of galactosidase-PAR2 (GPAR2) fusion protein (chain, as listed by the source, chain 2 of 2): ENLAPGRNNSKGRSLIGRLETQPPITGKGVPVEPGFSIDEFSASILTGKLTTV
Chain of galactosidase-PAR4 (GPAR4) fusion protein (chain, as listed by the source, chain 1 of 2): as the sequence (chain, as listed by the source, chain 1 of 2) above
Chain of galactosidase-PAR4 (GPAR4) fusion protein (chain, as listed by the source, chain 2 of 2): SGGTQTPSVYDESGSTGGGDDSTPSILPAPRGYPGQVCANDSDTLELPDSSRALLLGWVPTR
Chain of GPAR4^R47S activation site mutant fusion protein (chain, as listed by the source R47S, chain 1 of 2): as the sequence (chain, as listed by the source, chain 1 of 2) above, with R47S counted along it
Chain of GPAR4^R47S activation site mutant fusion protein (chain, as listed by the source R47S, chain 2 of 2): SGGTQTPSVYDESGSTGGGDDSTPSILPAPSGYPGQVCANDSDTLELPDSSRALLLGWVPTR

Row | Protein | β-Galactosidase release rate (mmol β-Galactosidase/(molProtease * min)) [1] | β-Galactosidase release rate (mmol β-Galactosidase/(molProtease * min)) [2] | β-Galactosidase release rate (mmol β-Galactosidase/(molProtease * min)) [3] | β-Galactosidase release rate (mmol β-Galactosidase/(molProtease * min)) [4] | β-Galactosidase release rate (mmol β-Galactosidase/(molProtease * min)) [5] | β-Galactosidase release rate (mmol β-Galactosidase/(molProtease * min)) [6] | β-Galactosidase release rate (mmol β-Galactosidase/(molProtease * min)) [7] | β-Galactosidase release rate (mmol β-Galactosidase/(molProtease * min)) [8] | β-Galactosidase release rate (determined in the presence of hirudin) [6] | β-Galactosidase release rate (determined in the presence of hirudin) [8] | cleavage efficiency, against GPAR2^R34S [1] | cleavage rate, against trypsin [1] | activity on GPAR3, against thrombin [8]
1 | human single-chain tPA (protein) SYQVICRDEKTQMIYQQHQSWLRPVLRSNRVEYCWCNSGRAQCHSVPVKSCSEPRCFNGGTCQQALYFSDFVCQCPEGFAGKCCEIDTRATCYEDQGISYRGTWSTAESGAECTNWNSSALAQKPYSGRRPDAIRLGLGNHNYCRNPDRDSKPWCYVFKAGKYSSEFCSTPACSEGNSDCYFGNGSAYRGTHSLTESGASCLPWNSMILIGKVYTAQNPSAQALGLGKHNYCRNPDGDAKPWCHVLKNRRLTWEYCDVPSCSTCGLRQYSQPQFRIKGGLFADIASHPWQAAIFAKHRRSPGERFLCGGILISSCWILSAAHCFQERFPPHHLTVILGRTYRVVPGEEEQKFEVEKYIVHKEFDDDTYDNDIALLQLKSDSSRCAQESSVVRTVCLPPADLQLPDWTECELSGYGKHEALSPFYSERLKEAHVRLYPSSRCTSQHLLNRTVTDNMLCAGDTRSGGPQANLHDACQGDSGGPLVCLNDGRMTLVGIISWGLGCGQKDVPGVYTKVTNYLDWIRDNMRP | ≤ 0.01 | ≤ 0.01 | ≤ 0.01 | ≤ 0.01 | ≤ 0.01 | ≤ 0.01 | ≤ 0.01 | 0.03 | – | – | – | – | –
2 | bovine activated protein C (protein) ANSFLEELRPGNVERECSEEVCEFEEAREIFQNTEDTMAFWSFYSDGDQCEDRPSGSPCDLPCCGRGKCIDGLGGFRCDCAEGWEGRFCLHEVRFSNCSAENGGCAHYCMEEEGRRHCSCAPGYRLEDDHQLCVSKVTFPCGRLGKRMEKKRKTLKRDTNQVDQKDQLDPRIVDGQEAGWGESPWQAVLLDSKKKLVCGAVLIHVSWVLTVAHCLDSRKKLIVRLGEYDMRRWESWEVDLDIKEVIIHPNYTKSTSDNDIALLRLAKPATLSQTIVPICLPDSGLSERKLTQVGQETVVTGWGYRDETKRNRTFVLSFIKVPVVPYNACVHAMENKISENMLCAGILGDPRDACEGDSGGPMVTFFRGTWFLVGLVSWGEGCGRLYNYGVYTKVSRYLDWIYGHIKAQEAPLESQVP | ≤ 0.01 | ≤ 0.01 | ≤ 0.01 | ≤ 0.01 | ≤ 0.01 | – | ≤ 0.01 | – | ≦1 * 10^-2 a | ≦1 * 10^-2 a | – | – | –
3 | human plasmin (protein) KVYLSECKTGNGKNYRGTMSKTKNGITCQKWSSTSPHRPRFSPATHPSEGLEENYCRNPDNDPQGPWCYTTDPEKRYDYCDILECEEECMHCSGENYDGKISKTMSGLECQAWDSQSPHAHGYIPSKFPNKNLKKNYCRNPDRELRPWCFTTDPNKRWELCDIPRCTTPPPSSGPTYQCLKGTGENYRGNVAVTVSGHTCQHWSAQTPHTHNRTPENFPCKNLDENYCRNPDGKRAPWCHTTNSQVRWEYCKIPSCDSSPVSTEQLAPTAPPELTPVVQDCYHGDGQSYRGTSSTTTTGKKCQSWSSMTPHRHQKTPENYPNAGLTMNYCRNPDADKGPWCFTTDPSVRWEYCNLKKCSGTEASVVAPPPVVLLPDVETPSEEDCMFGNGKGYRGKRATTVTGTPCQDWAAQEPHRHSIFTPETNPRAGLEKNYCRNPDGDVGGPWCYTTNPRKLYDYCDVPQCAAPSFDCGKPQVEPKKCPGRVVGGCVAHPHSWPWQVSLRTRFGMHFCGGTLISPEWVLTAAHCLEKSPRPSSYKVILGAHQEVNLEPHVQEIEVSRLFLEPTRKDIALLKLSSPAVITDKVIPACLPSPNYVVADRTECFITGWGETQGTFGAGLLKEAQLPVIENKVCNRYEFLNGRVQSTELCAGHLAGGTDSCQGDSGGPLVCFEKDKYILQGVTSWGLGCARPNKPGVYVRVSRFVTWIEGVMRNN | 0.67 | 0.35 | 0.26 | 0.29 | 0.48 | 4.1 | 0.16 | 0.34 | – | – | Plasmin cleaved GPAR2 two times more efficiently than GPAR2^R34S | only at a 560 fold lower rate than trypsin | about 120 times less active than thrombin
4 | human leukocyte elastase (protein) IVGGRRARPHAWPFMVSLQLRGGHFCGATLIAPNFVMSAAHCVANVNVRAVRVVLGAHNLSRREPTRQVFAVQRIFENGYDPVNLLNDIVILQLNGSATINANVQVAQLPAQGRRLGNGVQCLAMGWGLLGRNRGIASVLQELNVTVVTSLCRRSNVCTLVRGRQAGVCFGDSGSPLVCNGLIHGIASFVRGGCASGLYPDAFAPVAQFVNWIDSIIQ | 24 | 16 | 11 | 140 | 12 | 78 | 93 | 50 | – | – | – | – | –
